Experimental findings from patent publication US20220332804A1 (CSL INNOVATION, published 2022) are described below.

Holding throughout (assay): SPR, antibody captured, C2 as analyte;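 note: biacore at 37 °C, anti-C2 mAbs held by immobilised goat anti-human IgG, C2 alanine or serine mutants injected, double-referenced sensorgrams fitted to a 1:1 kinetic or steady-state model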
In general terms: In SPR one partner is held on a chip, and binding of the other changes the refractive index at the surface.

Assay [1] concerns the target T1, human C2 I320A (human, UniProt P06681 21-752).
T1 sequence: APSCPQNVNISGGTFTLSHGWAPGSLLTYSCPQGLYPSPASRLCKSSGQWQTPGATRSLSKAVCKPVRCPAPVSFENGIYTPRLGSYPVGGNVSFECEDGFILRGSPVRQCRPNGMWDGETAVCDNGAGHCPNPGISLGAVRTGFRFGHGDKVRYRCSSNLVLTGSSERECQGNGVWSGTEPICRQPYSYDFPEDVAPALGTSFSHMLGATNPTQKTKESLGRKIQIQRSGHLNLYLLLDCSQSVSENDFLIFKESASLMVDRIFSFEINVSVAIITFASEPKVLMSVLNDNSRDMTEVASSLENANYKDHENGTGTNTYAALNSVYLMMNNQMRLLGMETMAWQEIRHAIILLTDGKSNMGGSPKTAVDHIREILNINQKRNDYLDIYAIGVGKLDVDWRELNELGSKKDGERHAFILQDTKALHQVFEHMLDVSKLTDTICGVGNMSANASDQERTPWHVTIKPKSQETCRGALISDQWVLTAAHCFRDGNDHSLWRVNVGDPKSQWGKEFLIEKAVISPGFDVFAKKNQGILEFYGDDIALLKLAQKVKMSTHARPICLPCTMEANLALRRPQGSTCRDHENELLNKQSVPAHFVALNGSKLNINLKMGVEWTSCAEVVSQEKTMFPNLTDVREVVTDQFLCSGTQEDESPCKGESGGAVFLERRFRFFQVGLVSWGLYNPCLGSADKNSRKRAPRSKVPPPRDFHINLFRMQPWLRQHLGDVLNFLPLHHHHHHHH

The target in assay [2] is T2, human C2 H451A (human, UniProt P06681 21-752).
T2 sequence: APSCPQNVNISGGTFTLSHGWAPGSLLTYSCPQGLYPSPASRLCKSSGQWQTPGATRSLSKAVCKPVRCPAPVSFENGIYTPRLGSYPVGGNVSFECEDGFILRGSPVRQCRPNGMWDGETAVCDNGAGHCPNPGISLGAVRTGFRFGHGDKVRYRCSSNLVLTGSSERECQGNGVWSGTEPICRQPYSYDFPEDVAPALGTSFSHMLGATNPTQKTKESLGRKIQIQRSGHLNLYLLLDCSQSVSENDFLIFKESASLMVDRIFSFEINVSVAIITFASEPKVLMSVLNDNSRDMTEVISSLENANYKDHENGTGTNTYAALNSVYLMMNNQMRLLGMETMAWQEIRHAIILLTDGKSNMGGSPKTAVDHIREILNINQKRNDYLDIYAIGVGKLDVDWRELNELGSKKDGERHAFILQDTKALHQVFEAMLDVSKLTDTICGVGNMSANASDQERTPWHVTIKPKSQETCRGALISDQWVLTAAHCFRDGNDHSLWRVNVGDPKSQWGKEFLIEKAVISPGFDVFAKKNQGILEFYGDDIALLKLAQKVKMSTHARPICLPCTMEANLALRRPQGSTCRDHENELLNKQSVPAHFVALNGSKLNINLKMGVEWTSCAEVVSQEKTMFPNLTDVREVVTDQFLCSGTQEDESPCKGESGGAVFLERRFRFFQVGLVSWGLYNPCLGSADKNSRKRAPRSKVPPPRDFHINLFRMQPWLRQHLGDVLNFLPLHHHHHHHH

Assay [3] deals with T3, human C2 N467A (human, UniProt P06681 21-752).
T3 sequence: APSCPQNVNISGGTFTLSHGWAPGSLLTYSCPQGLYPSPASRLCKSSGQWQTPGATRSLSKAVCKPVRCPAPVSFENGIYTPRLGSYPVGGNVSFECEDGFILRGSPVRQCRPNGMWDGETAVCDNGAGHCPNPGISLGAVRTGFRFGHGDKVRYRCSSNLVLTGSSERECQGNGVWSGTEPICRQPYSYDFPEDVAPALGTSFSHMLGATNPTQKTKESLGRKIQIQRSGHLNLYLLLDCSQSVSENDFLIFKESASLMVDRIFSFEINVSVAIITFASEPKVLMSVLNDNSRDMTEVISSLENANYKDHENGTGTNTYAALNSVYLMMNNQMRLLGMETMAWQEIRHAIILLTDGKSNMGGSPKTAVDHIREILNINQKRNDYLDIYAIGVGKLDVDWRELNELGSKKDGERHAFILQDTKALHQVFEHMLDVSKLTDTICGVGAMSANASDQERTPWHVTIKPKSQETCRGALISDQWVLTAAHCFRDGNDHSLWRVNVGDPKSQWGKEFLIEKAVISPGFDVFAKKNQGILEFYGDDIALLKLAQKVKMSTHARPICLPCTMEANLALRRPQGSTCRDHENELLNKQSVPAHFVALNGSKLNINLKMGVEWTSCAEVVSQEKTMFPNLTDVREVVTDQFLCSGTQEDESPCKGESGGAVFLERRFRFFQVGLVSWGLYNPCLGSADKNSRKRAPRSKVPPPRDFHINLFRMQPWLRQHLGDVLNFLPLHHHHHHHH

Assay [4] deals with T4, human C2 A472S (human, UniProt P06681 21-752).
T4 sequence: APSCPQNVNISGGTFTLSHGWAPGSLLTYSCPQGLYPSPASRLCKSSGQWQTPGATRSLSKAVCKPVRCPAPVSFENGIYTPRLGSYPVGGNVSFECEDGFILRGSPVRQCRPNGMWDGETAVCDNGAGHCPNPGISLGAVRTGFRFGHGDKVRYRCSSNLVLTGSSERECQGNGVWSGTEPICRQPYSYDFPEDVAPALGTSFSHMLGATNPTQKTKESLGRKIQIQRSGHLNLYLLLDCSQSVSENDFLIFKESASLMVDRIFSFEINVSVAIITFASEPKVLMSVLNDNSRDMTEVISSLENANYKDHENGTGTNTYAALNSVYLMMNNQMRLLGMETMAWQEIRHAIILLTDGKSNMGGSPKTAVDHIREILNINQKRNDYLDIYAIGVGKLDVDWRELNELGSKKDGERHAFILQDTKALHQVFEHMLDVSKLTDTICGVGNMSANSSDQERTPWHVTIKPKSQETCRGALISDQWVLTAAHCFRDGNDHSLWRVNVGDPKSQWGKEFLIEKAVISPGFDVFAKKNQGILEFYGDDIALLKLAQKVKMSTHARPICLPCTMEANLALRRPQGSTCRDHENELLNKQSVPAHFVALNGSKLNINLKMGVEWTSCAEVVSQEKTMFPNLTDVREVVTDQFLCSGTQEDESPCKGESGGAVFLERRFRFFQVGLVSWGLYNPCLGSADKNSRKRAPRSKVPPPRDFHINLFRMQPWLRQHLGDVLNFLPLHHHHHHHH

B1: RF16-242 (antibody, human IgG4 S228P, lambda, V domains shown)
VH: EVQLLQSGAEVKKPGESLKISCKGSGYSFTSYWIGWVRQMPGKGLEWMGIIYPGDSDTRYSPSFQGQVTISADKSISTAYLQWSSLKASDTAMYYCARRGHYGDYFDYWGQGTLVTVSS
VL: SYELTQPPSVSVSPGQTARITCSGDALPKKYAYWYHQKSGQAPVLVIYEDRRRPSEIPERFSGSSSGTMATLTITGAQVEDEGVYFCYSRDRAGNQRVFGGGTQLTVLG
notes: pH-dependent anti-C2 antibody from a phage display library
As to B1, the Kd came to 73.5 nM in assay [1], 21.3 nM in assay [2], 13.4 nM in assay [3] and 51.1 nM in assay [4].

The term Kd denotes the constant that tells how readily two partners part at equilibrium. High values mean a looser complex, low ones a tighter complex.
